# Results reported in patent US20210162028A1, “Methods for Inducing Intermittent Fasting and Modulating Autophagy” (The Hong Kong Polytechnic University, priority 2019, published 2021).
# Entries after “also recorded” stand apart in the source; their conditions may differ.
# B1: N-ABD094-rhArg: recombinant human arginase fused to albumin binding domain ABD094 (SEQ ID NO: 50); engineered long-acting arginine-depleting enzyme (protein)
# chain: MHHHHHHDEAVDANSLAEAKEAANAELDSYGVSDFYKRLIDKAKTVEGVEALKDAILAALPSGSNNNNNNGSGGMSAKSRTIGIIGAPFSKGQPRGGVEEGPTVLRKAGLLEKLKEQECDVKDYGDLPFADIPNDSPFQIVKNPRSVGKASEQLAGKVAEVKKNGRISLVLGGDHSLAIGSISGHARVHPDLGVIWVDAHTDINTPLTTTSGNLHGQPVSFLLKELKGKIPDVPGFSWVTPCISAKDIVYIGLRDVDPGEHYILKTLGIKYFSMTEVDRLGIGKVMEETLSYLLGRKKRPIHLSFDVDGLDPSFTPATGTPVVGGLTYREGLYITEEIYKTGLLSGLDIMEVNPSLGKTPEEVTRTVNTAVAITLACFGLAREGNHKPIDYLNPPK
# modifications: N-ABD094-rhArg, Synthesized in the Lab
# notes: engineered long-acting arginine-depleting enzyme
# Key:
# Format in all cases: in vivo, mouse
# [1] = Daily food intake / 7-day intermittent fasting cycle in mice
# Description: One of the most noticeable effects of intermittent fasting is reduction of bodyweight. […] Specifically, C57BL/6J, which is the most commonly used mouse strain for polygenic obesity model, was used in the study. It is well-reported that C57BL/6J male mice feeding on a high-fat diet will have prominent weight gain, become obese and develop hyperinsulinemia, hyperglycemia, impaired glucose tolerance and insulin resistance [Gallou-Kabani et al., 2007, Obesity 15(8):1996-2005]. Obesity was induced in C57BL/6J male mice via feeding ad libitum a high-fat diet containing 60 kcal % fat (HFD; Research Diets, D12492) for 12-14 weeks starting from 5-week old. These mice are referred as diet-induced obese (DIO) mice. DIO mice were stratified according to bodyweight into 2 groups. […] Both groups of mice continued to feed ad libitum on the HFD throughout the treatment period. One group of age-matched C57BL/6J male mice feeding ad libitum on an ordinary rodent chow diet (CD; LabDiet, 50IF/6F) and injected with vehicle served as the lean control [CD (vehicle) group]. Food intake and bodyweight of mice were measured daily. […] DIO mice were injected with rhArg on Day 0, which was Day 7 of the previous cycle. Similarly, Day 7 of the cycle shown in FIG. 1B was Day 0 of the next cycle. […] Bodyweight gain is one of the biomarkers related to aging.
# C57BL/6J male mice were fed a high-fat diet from 5-week old for 12 weeks. They were then stratified into 3 groups according to their bodyweight and individually caged: (i) one group of mice received i.p. injection of 600 U N-ABD094-rhArg (SEQ ID NO: 50) once a week [HFD (rhArg) group] and was fed ad libitum the HFD for 5 weeks; (ii) one group of mice received i.p. injection of saline once a week, and was fed a predetermined amount of HFD on each day to artificially create a 7-day intermittent fasting cycle that mimics the pattern of food intake of mice administered once a week with rhArg [HFD (artificial IF) group)]; (iii) one group of mice was injected with saline once a week and was fed ad libitum the HFD [HFD (vehicle) group].
# [2] = Fat pad and organ mass at end of treatment; details: DIO C57BL/6J male mice on HFD, about 600 U once a week, 34 weeks
# Description: Other than WAT and BAT, obesity is associated with excessive accumulation of lipids in the liver (hepatic steatosis). Indeed, the liver of vehicle-treated DIO mice was markedly enlarged (FIG. 7A), with a mass about 3 times (4.68 g) that of the lean control (1.73 g) (FIG. 7B).
# Other than liver, obesity is also commonly associated with lipid accumulation in the kidney (renal steatosis) and heart (cardiac steatosis), causing lipotoxicity and dysfunction of these organs. Indeed, there was an increase in kidney and heart mass in DIO mice treated with vehicle (FIG. 8A and FIG. 9A).
# [3] = Barnes maze test for spatial learning and memory; details: DIO C57BL/6J male mice on HFD; weekly, at 43-44 weeks of treatment
# Protocol: To determine whether N-ABD094-rhArg [SEQ ID NO: 50], which can induce repetitive intermittent fasting cycles, has beneficial effects on cognitive performance, the Barnes maze test was conducted over ten days to evaluate spatial learning and memory function. The test was performed on a flat circular platform (100 cm in diameter, 1.5 cm thick, elevated 40 cm above the floor) with twenty evenly-spaced holes (7 cm in diameter) distributed around the circumference, and an escape box was placed under one of the holes. Prior to experimentation, each mouse was guided to the specific hole that was positioned over the escape box and left for 180 seconds. Subsequently, each mouse was trained to find the escape hole by placing the mouse in the center of the platform under a small black chamber for three seconds, the chamber was then lifted, and mouse was allowed to find the escape hole within 180 seconds. The platform was brightly illuminated and cooled using a desk fan as adverse stimuli. If the mouse was unable to find the target hole in the allowed time, it was guided to the escape box. Two trials were performed each day for four consecutive days as training period, after which the short- and long-term spatial memory of the mouse was probed on Day 5 and Day 10 respectively, by removing the escape box and allowing them to explore the platform for a full 180 seconds. Each trial was recorded directly over the platform. For each trial on Day 1 to 4, the time required to find the escape hole and exit the platform, and the type of exploratory pattern (random, serial, or direct) in exploring were recorded. For each probe trial on Day 5 and 10, the number of times the mice investigated each of the twenty holes was recorded over 180 seconds, with an instance of investigation defined as the localization of the snout inside a given hole.
# Spatial memory loss is a prominent feature in rodent models of type 2 diabetes and obesity [Boitard et al., 2014; Underwood and Thompson, 2016]. To investigate whether arginase treatment could prevent spatial memory loss in mice fed a HFD, DIO C57BL/6J male mice were subjected to assessment of spatial memory by Barnes maze test at 43 weeks after receiving weekly administration of N-ABD094-rhArg (SEQ ID NO: 50) starting from 17-week old.
# [4] = DIO C57BL/6J male mice on HFD, about 600 U i.p. once a week, 34 weeks
# [5] = DIO C57BL/6J male mice on HFD, about 600 U once a week, 49 weeks
molecule,measurement,setting,value
B1,Pattern of food intake (intermittent fasting cycles),"[1]; 16-month old DIO C57BL/6J male mice on HFD, about 600 U once a week, 25 weeks",induce repetitive 7-day intermittent fasting cycles
same,Pattern of food intake (intermittent fasting cycles),"[1]; 17-month old C57BL/6J male mice on chow diet, about 600 U once a week, 21 weeks",induce repetitive 7-day intermittent fasting cycles
same,Pattern of food intake (intermittent fasting cycles),"[1]; 25-month old C57BL/6J male mice on chow diet, about 600 U once a week, 30 weeks",prominent repetitive 7-day intermittent fasting cycles
same,Pattern of food intake (intermittent fasting cycle),"[1]; DIO C57BL/6J male mice on HFD, 200 U rhArg i.p. once a week and/or 0.33 mg RA daily",weak 7 days intermittent fasting cycle
same,"Total food intake per week, less than HFD (vehicle) group","[1]; DIO C57BL/6J male mice on HFD, 200 U rhArg i.p. once a week and/or 0.33 mg RA daily by gastric feeding, 10 weeks","slight, but insignificant decrease"
same,Pattern of food intake (intermittent fasting cycle),"[1]; DIO C57BL/6J male mice on HFD, 200 U rhArg i.p. once a week and/or 0.33 mg RA daily, listed as rhArg","7-day pattern of decreased food intake followed by an increase of food intake, but the magnitude was less than HFD (rhArg+RA) group"
same,Pattern of food intake (intermittent fasting cycle),"[1]; DIO C57BL/6J male mice on HFD, 300 U rhArg i.p. once a week and/or 300 mg/kg metformin daily",weak intermittent fasting cycle
same,"Total food intake per week, less than HFD (vehicle) group","[1]; DIO C57BL/6J male mice on HFD, 300 U rhArg i.p. once a week and/or 300 mg/kg metformin daily by gastric feeding, 9 weeks",did not induce significant change in total food intake per week
same,Pattern of food intake (intermittent fasting cycle),"[1]; DIO C57BL/6J male mice on HFD, 300 U rhArg i.p. once a week and/or 300 mg/kg metformin daily, listed as rhArg","7-day pattern of decreased food intake followed by an increase of food intake, but the magnitude was less than HFD (rhArg+Met) group"
same,"Total food intake per week, less than HFD (vehicle) group","[1]; DIO C57BL/6J male mice on HFD, 600 U i.p. once a week, 5 weeks (artificial IF experiment)",26%
same,Reduction of total food intake per week,"[1]; DIO C57BL/6J male mice on HFD, 600 U i.p. once a week, 5 weeks (reduced daily food intake experiment)",30%
same,Pattern of food intake (intermittent fasting cycles),[1]; [4],repetitive cycles of intermittent fasting; also recorded: repetitive 7-day intermittent fasting cycles
same,"Total food intake per week, less than HFD (vehicle) group",[1]; [4],about 30%
same,Pattern of food intake (intermittent fasting cycles),[1]; [5],repetitive 7-day intermittent fasting cycles
same,"Total food intake per week, less than HFD (vehicle) group",[1]; [5],about 29%
same,Pattern of food intake (intermittent fasting cycles),"[1]; DIO C57BL/6J male mice on HFD, about 600 U once a week, 49 weeks, listed as rhArg",repetitive cycles of intermittent fasting
same,Pattern of food intake (intermittent fasting cycles),"[1]; DIO ICR female mice on HFD, about 1200 U i.p. once a week, 56 weeks",repeatedly occurring in ICR female mice throughout the 56 weeks of treatment period; also recorded: repetitive 7-day intermittent fasting cycles
same,Kidney and heart mass,[2],significantly less than that of the vehicle-treated DIO mice
same,"Mass of perirenal, inguinal and interscapular fat pad, relative to DIO mice treated with vehicle",[2],less than 20%
same,Liver mass,"[2]; vehicle DIO 4.68 g, lean control 1.73 g",1.39 g
same,Barnes maze: exploratory pattern (search mode) on Day 1,[3],predominately used a serial-type exploratory pattern; also recorded: significantly improve their search mode
same,Barnes maze: latency to exit the platform in training period,[3],could exit the platform significantly earlier than HFD-fed mice treated with vehicle; also recorded: significantly reduce the total latency
same,Barnes maze: probe trial Day 5 (short-term memory),[3],explored the holes nearest to the target in increasing frequency with the target hole being the most-explored hole
same,Barnes maze: probe trial Day 10 (long-term memory),[3],Such trends were maintained on Day 10
